According to US20100104555A1 (Scripps Research, published 2010):

B1: E2412-611 (other)
chain: QLINTNGSWHINSTALNCNESLNTGWLAGLFYQHKFNSSGCPERLASCRRLTDFAQGWGPISYANGSGLDERPYCWHYPPRPCGIVPAKSVCGPVYCFTPSPVVVGTTDRSGAPTYSWGANDTDVFVLNNTRPPLGNWFGCTWMNSTGFTKVCGAPPCVIGGVGNNTLLCPTDCFRKHPEATYSRCGSGPWITPRCMVDYLEDYKDDDDK
B6: E2492-645 (other)
chain: RPCGIVPAKSVCGPVYCFTPSPVVVGTTDRSGAPTYSWGANDTDVFVLNNTRPPLGNWFGCTWMNSTGFTKVCGAPPCVIGGVGNNTLLCPTDCFRKHPEATYSRCGSGPWITPRCMVDYPYRLWHYPCTINYTIFKVRMYVGGVEHRLEAACNLEDYKDDDDK
B12: maltose binding protein fused-large extracellular loop of CD81 (receptor)
chain: FVNKDQIAKDVKQFYDQALQQAVVDDDANNAKAVVKTFHETLDCCGSSTLTALTTSVLKNNLCPSGSNIISNLFKEDCHQKIDDLFSGK
notes: also called CD81-LEL; MBP-fused CD81-LEL
B13: E2456-645 (other)
chain: LASCRRLTDFAQGWGPISYANGSGLDERPYCWHYPPRPCGIVPAKSVCGPVYCFTPSPVVVGTTDRSGAPTYSWGANDTDVFVLNNTRPPLGNWFGCTWMNSTGFTKVCGAPPCVIGGVGNNTLLCPTDCFRKHPEATYSRCGSGPWITPRCMVDYPYRLWHYPCTINYTIFKVRMYVGGVEHRLEAACNLEDYKDDDDK

Key:
[1] = biological target: B12; test: capture ELISA, coated CD81-LEL, 293T supernatant
E1E2 of HCV isolate H77 [2] = biological target: T1, E1E2 of HCV isolate H77 (hepatitis C virus genotype 1a, isolate …, UniProt P27958 192-383; P27958 384-746); test: cell-based or functional assay
E2412-611 = biological target: B1; test: capture ELISA, coated mAb, 293T supernatant
E2412-589 [3] = biological target: T2, E2412-589 (hepatitis C virus isolate H77, UniProt P27958 412-588); test: capture ELISA, coated mAb, 293T supernatant
E2412-574 [4] = biological target: T3, E2412-574 (hepatitis C virus isolate H77, UniProt P27958 412-574); test: capture ELISA, coated mAb, 293T supernatant
E2456-645 = biological target: B13; test: capture ELISA, coated mAb, 293T supernatant
E2492-645 = biological target: B6; test: capture ELISA, coated mAb, 293T supernatant
E1E2 of HCV isolate H77 [5] = biological target: T1, E1E2 of HCV isolate H77; test: ELISA, mAb inhibits E1E2 (H77) binding to coated CD81-LEL
[6] = biological target: vaccinia-expressed E1E2 (isolate HCV-1) (hepatitis C virus genotype 1a, isolate …, UniProt P26664 192-383; P26664 384-746); test: ELISA on lectin-captured E1E2; apparent affinity = half-maximal binding
E1E2 of HCV isolate H77 [7] = biological target: T1, E1E2 of HCV isolate H77; test: as above
[8] = biological target: B12; test: capture ELISA
[9] = biological target: B12; test: capture ELISA, coated CD81-LEL captures Flag-tagged E2 mutant
E2412-589 [10] = biological target: T2, E2412-589; test: capture ELISA, coated CD81-LEL, 293T supernatant
E2412-574 [11] = biological target: T3, E2412-574; test: capture ELISA, coated CD81-LEL, 293T supernatant

B1
binding result [1]: no binding

B2: MAb AR3C (antibody, V domains shown)
VH: LEQSGAEVKKPGSSVKVSCETSGGTLDNYALNWVRQAPGQGLEWIGGVVPLFGTTRNAQKFQGRVTISDDKSTGTGHMELRSLRSEDTAVYYCVRSVTPRYCGGGFCYGEFDYWGQGTLVTVSS
VL: ELTQSPATLSVSPGERATLSCRASQSVSSNLAWYQQKPGQAPRLLIYGASTRATGIPARFSGSGSGTDFTLTVSRLEPEDSAVYFCQQYRSPLTFGGGTKVEIKR
notes: also called IgG1 AR3C
Neutralizing activity (IC50), HCVpp (E1E2 of HCV isolate H77 [2]): 1 µg/mL
binding result (E2412-611): no binding
binding result (E2412-589 [3]): no binding
binding result (E2412-574 [4]): no binding
binding result (E2456-645): no binding
binding result (E2492-645): no binding
IC50 (E1E2 of HCV isolate H77 [5]): 2 nM
EC50 [6]: 1.4 nM
EC50 (E1E2 of HCV isolate H77 [7]): 2.3 nM

B3: E2412-645 (other)
chain: QLINTNGSWHINSTALNCNESLNTGWLAGLFYQHKFNSSGCPERLASCRRLTDFAQGWGPISYANGSGLDERPYCWHYPPRPCGIVPAKSVCGPVYCFTPSPVVVGTTDRSGAPTYSWGANDTDVFVLNNTRPPLGNWFGCTWMNSTGFTKVCGAPPCVIGGVGNNTLLCPTDCFRKHPEATYSRCGSGPWITPRCMVDYPYRLWHYPCTINYTIFKVRMYVGGVEHRLEAACNLEDYKDDDDK
binding result [8]: binds

B4: E2ΔN9 (other)
chain: QLINTNGSWHINSTALNCNESLNTGWLAGLFYQHKFNSSGCPERLASCRRLTDFAQGWGPISYANGSGLDERPYCWHYPPRPCGIVPAKSVCGPVYCFTPSPVVVGTTDRSGAPTYSWGANDTDVFVLNNTRPPLGNWFGCTWMNSTGFTKVCGAPPCGSSGCPTDCFRKHPEATYSRCGSGPWITPRCMVDYPYRLWHYPCTINYTIFKVRMYVGGVEHRLEAACNLEDYKDDDDK
binding result [9]: binds

B5: E2ΔN5N9 (other)
chain: QLINTNGSWHINSTALNCNESLNTGWLAGLFYQHKFNSSGCPERLASCGSSGCWHYPPRPCGIVPAKSVCGPVYCFTPSPVVVGTTDRSGAPTYSWGANDTDVFVLNNTRPPLGNWFGCTWMNSTGFTKVCGAPPCGSSGCPTDCFRKHPEATYSRCGSGPWITPRCMVDYPYRLWHYPCTINYTIFKVRMYVGGVEHRLEAACNLEDYKDDDDK
binding result [9]: binds

B6
binding result [1]: no binding

B7: MAb AR1A (antibody, V domains shown)
VH: LEQSGAEVKKPGSSVKVSCRASGSPYSSYTITWVRQAPGQGLEWMGGIILMTGKANYAQKFQGRVTITADRATATAYMEMSSLTSDDTAIYYCARDPYVYAGDDVRSLSRWGQGTPVIVSS
VL: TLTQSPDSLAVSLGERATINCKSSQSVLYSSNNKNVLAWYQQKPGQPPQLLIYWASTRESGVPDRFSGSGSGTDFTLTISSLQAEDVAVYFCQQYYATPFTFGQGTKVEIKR
notes: also called IgG1 AR1A
Neutralizing activity (IC50), HCVpp (E1E2 of HCV isolate H77 [2]): > 50 µg/mL
IC50 (E1E2 of HCV isolate H77 [5]): 5.7 nM
EC50 [6]: 2.6 nM
EC50 (E1E2 of HCV isolate H77 [7]): 3.8 nM

B8: MAb AR1B (antibody, V domains shown)
VH: LESGGGLVQPGGSLRLSCEASGYYFSSFAMSWVRQTPGKGLEWVSSIAGGTLGRTSYRDSVKGRFTISRDNSKNTVFLHMNNLRPEDTAVYYCAKDPLLFAGGPNWFDHWGQGTLVTVSS
VL: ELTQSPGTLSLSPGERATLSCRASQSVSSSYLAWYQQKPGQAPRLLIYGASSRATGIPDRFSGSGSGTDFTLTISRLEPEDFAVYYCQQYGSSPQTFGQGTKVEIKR
notes: also called IgG1 AR1B
Neutralizing activity (IC50), HCVpp (E1E2 of HCV isolate H77 [2]): > 50 µg/mL
EC50 [6]: 0.4 nM
EC50 (E1E2 of HCV isolate H77 [7]): 0.6 nM

B9: MAb AR3D (antibody, V domains shown)
VH: LEQSGAEVKKPGSSVKVSCKASGDTFRSYVITWARQAPGQGLEWMGAIIPFFGTTNLAQKFQGRVTITADESTKTVYMDLSSLRSDDTAVYYCAKAGDLSVGGVLAGGVPHLRHFDPWGQGTLVTVSS
VL: ELTQSPGTLSLSPGERATLSCRAGQTVASNSLAWYQHKPGQAPRLLIYGASIRASGIPDRFSGSGSGTDFTLTISRLEPEDFAVYYCQQYGLSPSTFGQGTRLEIKR
notes: also called IgG1 AR3D
EC50 [6]: 2.4 nM

B10: MAb AR2A (antibody, V domains shown)
VH: LEQSGAEMKKPGASLKVSCKTSGYTFDDYGVTWVRQAPGQGLEWMGWISAYSGNTFYARKFQGRVTMTTDPSTRTAYMELRSLRSDDTAVYFCARDRGLAINGVVFPYFGLDVWGQGTTVTVSS
VL: ELTQSPVSLPVTPGEPASISCRSSQSLLHSNGNHYLDWYLQKPGQSPQLLMYLGSNRASGVPDRFSGSGSGTDFTLKISRVEAEDVGVYYCMQGLQTPWTFGQGTKVEIKR
notes: also called IgG1 AR2A
Neutralizing activity (IC50), HCVpp (E1E2 of HCV isolate H77 [2]): 1 µg/mL
EC50 [6]: 3.1 nM
EC50 (E1E2 of HCV isolate H77 [7]): 1.6 nM

B11: E2ΔN5 (other)
chain: QLINTNGSWHINSTALNCNESLNTGWLAGLFYQHKFNSSGCPERLASCGSSGCWHYPPRPCGIVPAKSVCGPVYCFTPSPVVVGTTDRSGAPTYSWGANDTDVFVLNNTRPPLGNWFGCTWMNSTGFTKVCGAPPCVIGGVGNNTLLCPTDCFRKHPEATYSRCGSGPWITPRCMVDYPYRLWHYPCTINYTIFKVRMYVGGVEHRLEAACNLEDYKDDDDK
binding result [9]: binds

B12
binding result (E2412-589 [10]): no binding
binding result (E2412-574 [11]): no binding

B13
binding result [1]: no binding

B14: E2412-661 (other)
chain: QLINTNGSWHINSTALNCNESLNTGWLAGLFYQHKFNSSGCPERLASCRRLTDFAQGWGPISYANGSGLDERPYCWHYPPRPCGIVPAKSVCGPVYCFTPSPVVVGTTDRSGAPTYSWGANDTDVFVLNNTRPPLGNWFGCTWMNSTGFTKVCGAPPCVIGGVGNNTLLCPTDCFRKHPEATYSRCGSGPWITPRCMVDYPYRLWHYPCTINYTIFKVRMYVGGVEHRLEAACNWTRGERCDLEDRDRSELEDYKDDDDK
binding result [8]: binds

B15: E2ΔTM (other)
chain: ETHVTGGNAGRTTAGLVGLLTPGAKQNIQLINTNGSWHINSTALNCNESLNTGWLAGLFYQHKFNSSGCPERLASCRRLTDFAQGWGPISYANGSGLDERPYCWHYPPRPCGIVPAKSVCGPVYCFTPSPVVVGTTDRSGAPTYSWGANDTDVFVLNNTRPPLGNWFGCTWMNSTGFTKVCGAPPCVIGGVGNNTLLCPTDCFRKHPEATYSRCGSGPWITPRCMVDYPYRLWHYPCTINYTIFKVRMYVGGVEHRLEAACNWTRGERCDLEDRDRSELSPLLLSTTQWQVLPCSFTTLPALSTGLIHLHQNIVDVQYLYGVGSSIASWAIKWELEDYKDDDDK
binding result [8]: binds

B16: MAb AR3B (antibody, V domains shown)
VH: LEQSGPEVKKPGSSVKVSCKDSGDTFNEPVTWVRQAPGQGLEWIGGIIPAFGVTKYAQKFQGRVIISADASTATAYLELSSLRSEDTAVYYCAKVGLRGIVMVGGLAMNWLDPWGQGTQVTVSS
VL: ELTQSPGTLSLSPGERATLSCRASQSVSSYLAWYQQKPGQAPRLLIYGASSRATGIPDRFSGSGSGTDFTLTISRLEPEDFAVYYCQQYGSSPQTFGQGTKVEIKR
notes: also called IgG1 AR3B
EC50 [6]: 2 nM
